Assay results taken from publication PMC9333441.
pEC50, pKd: −log10 of the molar value.

Tests used:
human ACE2-Fc (human) = human ACE2-Fc (human) (UniProt Q9BYF1); assay: BLI
[1] = molecular target: ACE2 on Vero-E6 cells (African green monkey (endogenous in Vero-E6)); assay: flow cytometry on cells

“soluble epitope-tagged RBD of Wuhan-Hu-1 SARS-CoV-2 (domain or fragment)” showed a pKd (human ACE2-Fc (human)) of 8.03 and a pEC50 [1] of 7.76.
